Test results: US20130158098A1, “Alkenyl Substituted Cycloaliphatic Compounds as Chemical Inducers of Proximity” (priority 2010, published 2013)

Biological target: VP16-PYLcs (VP16 transactivation domain fused to PYL1 aa 33-209) (herpes simplex virus; Arabidopsis thaliana) (UniProt Q8VZS8)
Assay: cell-based or functional assay

Chain of VP16-PYLcs (VP16 transactivation domain fused to PYL1 aa 33-209) (herpes simplex virus; Arabidopsis thaliana) (Q8VZS8 33-209 limits assumed): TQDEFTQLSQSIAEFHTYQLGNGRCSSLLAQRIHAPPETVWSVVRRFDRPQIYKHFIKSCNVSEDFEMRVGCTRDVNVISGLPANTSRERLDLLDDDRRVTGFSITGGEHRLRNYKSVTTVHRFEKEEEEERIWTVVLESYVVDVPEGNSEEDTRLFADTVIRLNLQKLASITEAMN

Gal4 DBD-ABIcs, wild type (Gal4 DNA binding domain fused to ABI1 aa 126-423) (from UniProt P04386 1-147)
luciferase production (UAS-luciferase reporter, murine ES, NIH 3T3 and HEK 293T cells): 1000 fold
